The data set is described as follows: yeast display, Sf9 membrane polyspecificity reagent, FACS + sequencing; frameworks hold sequencing errors. A digest of the protocol:
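Polyreactivity labels are assigned by the sorting gate from which each nanobody was recovered. The gates were low and high (top ~1%), set on anti-HA fluorescence for expression and streptavidin fluorescence for reagent binding. Before sorting, galactose-induced (36–48 hours) yeast display cells were stained for 1 hour at 4 °C with 10% biotinylated, detergent-solubilized Sf9 membrane reagent.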
For the sequence “QVQLVESGGGLVQAGGSLRLSCAASGSIFYVYAMGWYRQAPGKERELVASINKSGGSTYYADSVKGRFTISRDNAKNTVYLQMNSLKPEDTAVYYCAARTGWPRVGFQYPAHVGFDYWGQGTQVTVSS”, the “polyreactivity (PSR sort gate)” value was “low polyreactivity”.
Consider “QVQLVESGGGLVQAGGSLRLSCAASGSISSFYAMGWYRQAPGKERELVAGITSGGSTNYADSVKGRFTISRDNAKNTVYLQMNSLKPEDTAVDYCAAVYKGAGTHFDVFVKEFDYWGQGTQVTVSS”, for which the “polyreactivity (PSR sort gate)” value is reported as “low polyreactivity”.
Next, “QVQLVESGGGLVQAGGSLRLSCAASGRTFRYYVMGWYRQAPGKERELVARISWSGARTYYADSVKGRFTISRDHAKNTVYLQMNSLKPEDTAVYYCAADNPYYYRRDYWGQGTQVTVSS”: “low polyreactivity”; “QVQLVESGGGLVQAGGSLRLSCAASGRTLRGNAMGWYRQAPGKEREFVAAITRRGGSTYYADSVKGRFTISRDNAKNTVYLQMNSLKPEDTAVYYCAAEGYDWIYLYYGLGYWGQGTQVTVSS”: “low polyreactivity”; “QVQLVESGGGLVQAGGSLRLSCAASGSIFPGNAMGWYRQAPGKERELVAAISSSGGRTYYADSVKGRFTISRDNAKNTVYLQMNSLKPEDTAVYYCNRLQVYSYYPYYPWYNYWGQGTQVTVSS”: “high polyreactivity”.
As for “QVQLVESGGGLVQAGGSLRLSCAASGRIFWQYAMGWYRQAPGKERELVAGITYRGGSTYYADSVKGRFTISRDNAKQTVYLLMNSLKPEDTAVYYCAADTYLSSQYSDRYGYDYWGQGTQVTVSS”, the “polyreactivity (PSR sort gate)” value is on record as “high polyreactivity”.
For “QVQLVESGGGLVQAGGSLRLSCAASGFIFHNYAMGWYRQAPGKESELVAVITLRGGSTYYADSVKGRCTISRDNAKNTVYLQMNSLKPEDTAVYYCATGNSKGRRTVRYGYWGQGTQVTVSS”, the “polyreactivity (PSR sort gate)” value is on record as “high polyreactivity”.
As for “QVQLVESGGGLVQAGGSLRLSCAASGSIFSFYAMGWYRQAPGKERELVATISSGDNTNYADSVKGRFTISRDNAKNTVYLQMISLKPEDTAVYYCAADAWGVDREYDYWGQGTQVTVSS”, the “polyreactivity (PSR sort gate)” value was “low polyreactivity”.
Next, “QVPLVESGGGLVQAGGSLRLSCAASGRTFTPNGMGWYRQAPGKERELVAAITYGGGITDYADSVKGRFTISRDNAKNTVYLQMNSLKPEDTAVYYCAATTLSFEGGKYWSKYDYWGQGTQVTVSS”: “low polyreactivity”.
Regarding “QVQLVESGGGLVQAGGSLRLSCAASGITFRTYAMGWYRQAPGKERELVAAISGSSTSTYYADSVKGRFTISRDNAKNTVYLQLNSLKPEDSAVYYCAAGYRVSVYRYYYWGQGTQVTVSS”, the “polyreactivity (PSR sort gate)” value is “high polyreactivity”.
In the case of “QVQLVESGGGLVQAGGSLRLSCAASGSIFRGKAMGWYRQAPGKERELVAAITRSGGRTYYADSVKGRFTISRDNAKNTVYLQMNSLKPDDTAVYYCAAEYYTGLGYWGQGTQVTVSS” it was “high polyreactivity”.
For “QVQLVESGGGLVQAGGSLRLSCAASGRISRLNAMGWYRQAPGKERELVATISGRGGGTYYADSVKGRFTISRDNAKNTVYLQMNSLKPEDTAVYYCAVRGLYQGRRRYSSEYDYWGQGTQVTVSS”, the “polyreactivity (PSR sort gate)” value is reported as “high polyreactivity”.
In the case of “QVQLVESGGGLVQAGGSLRLSCAASGRTFQWYAMGWYRQAPGKERELVAAIRYSAGSTYYADSVKGRFTISRDHAKNTVYLQMNSLKREDTAVYYCAAEPYPYGPYYFLWLRYDYWGQGTQVTVSS” it was “low polyreactivity”.
Next, “QVQLVESGGGLVQAGGSLRLSCAASGSTFRSNAMGWYRPAPGKERELVAAISSRVGTTYYADSVKGRFTISRDNAKNTVYLQMNSLKPEDTAVYYCAAQGWRYYRTVVPMDYWGQGTQVTVSS”: “low polyreactivity”; “QVQLVESGGGLVQAGGRLRLSCAASGSTFYLNAMGWYRQAPGKERELVAAISSGGRTYYADSVKGRFTISRDNAKNTVYLQMTSLKPEDTAVYYCNAVRYLRGAYNYWGQGTQVTVSS”: “high polyreactivity”.
In the case of “QVQLVESGGGLVQAGGSLRLSCDPSGSIFYRNAMVWYRPAPGKERELVATITVNGGRTYYADSVKGRFTISRDNAKNTVYLQMNSLKPEDTAVYYCAKDVHRWYPYDYWGQGTQVTVSS” it was “low polyreactivity”.
With “QVQLVESGGGLVQAGGSLRLSCAASGGTFYYYAMGWSRQAPGKERELVAAISTSGTSTYYADSVKGRFTISRDNAKNTVYLQMNSLKPEVTAVYYCAARGLRVSSRGYYWGQGTQLTVSS”, the “polyreactivity (PSR sort gate)” value was “high polyreactivity”.
In the case of “QVQLVESGGGLVQAGGSLRLSCAASGRTFRHNDMGWYRQAPGKERELVAAISYSGGSTHYADSVKGRFTISRDNAKNTVYLQMNSLKPEDTAVYYCNRYSYDSHFLYPFRGHDYWGQGTQVTVSS” it was “low polyreactivity”; in that of “QVQLQESGGGLVQAGGSLRLSCAARGSICLDQPMGWYRQSPCKDPELVATIGQGGNTNYADSVKGRFTISRDNEKNTVYLYMTSLKPEDTAVYYCAVVYFYNYAYHYYWGQGTQVTVCS”, “low polyreactivity”; in that of “QVTLVESGGGLVQAGGSLRLSCAASGFTFYIYAMGWYRQAPGKERELVAAISSSGTRTYYADSVKGRFTISRDHAKNTVYLQMNSLKPEDTAVYYCAAALGWYSAFGYWGQGTQVTVSS”, “high polyreactivity”.
As for “QVQLVESGGGLFQAGGSLRLSCAASGSNFDYNAMGWYRPAHGKERELVAAITSTDSTYADSVKGRFTISRDTAKNTVYLQMNRLKPEDTAVYYCAAEDVIYYLTGQWREYDYWGQGTQVTVSS”, the “polyreactivity (PSR sort gate)” value was “low polyreactivity”.
In the case of “QVQLVESGGGLVQAGGSLRLSCAASGRIFGYNAMGWYRQAPGKERELVASIRSGGSTNYADSVKGRFTISRDNAKNTVYLQMNSLKPEDTAVYYCAKSYRWHLNGGLGWRLGNYWGQGTQVTVSS” it was “high polyreactivity”; in that of “QVHLVESGGGLVQAGGSLRLSSAASGNIFESYALGWYRQAPGKERELVAAISGSGDSTNYADSVKGRFTISRDNAKNSVYLQMNSLKPEDTAVYYCAARPEVRHQYRRYDYWGQGTQVTVSS”, “low polyreactivity”.
Turning to “QVQLVESGGGLDQAGGSLRLSCAASGRIFTYYTMGWYRQAPGKERELVATIRWSGGRTYYADSVKGRFTISRDNAKNTVYLQMNSLKPEDTAVYYCAANTYWRHYTPYTYGYWGQGTQVTVSS”, the “polyreactivity (PSR sort gate)” value is reported as “high polyreactivity”.
Next, “QVQLVESGGGLVQAGGSLRLSCAASGRIFVRYAMGWYRQAPGKERELVASIRSGGSTNYADSVKGRFTISRDNAKNTVYLQMNSLKPEDTAVYYCAAVLRPVRFYSGYYYWGQGTQVTVSS”: “high polyreactivity”; “QVQLVESGGGLVQAGGSLRLSCAASGSNFDSYAMGWYRQAPGKERVLVAAITRSSVSTYYADSVKGRFTISRDNAKYTVYLQMNSLKPEDTAVYYCAAEDEWSLLYLWFGEYDYWGQGTQVTVSS”: “low polyreactivity”; “QVHLVESGGGLVQAGGSLRLSSAASGRTFTAYTMGSYRQAPGKEREMVASISSGVTYADSVKGRFTISRDNAKNTVYLQMNSLKTVDTAVYYCAARLWYVQGYVPYVHHRFDYWGQGTQVTVSS”: “low polyreactivity”.
Regarding “QVQLVESGGGLVQAGGSLRLSCAASGITFQWYTMGWYRQAPGKERELVATISSGGSTNYADSVKGRFTISRDNAKNTVYLQMNSLKPEDTAVYYCAKQPTVYHHYGLGYWGQGTQVTVSS”, the “polyreactivity (PSR sort gate)” value is listed as “low polyreactivity”.
In the case of “QVQLVESGGGLVQAGGSLRLSCAASGNIFIYNAMGWYRQAPGKERELVASITYSGDSTYYADSVKGRFTISRDNAKNTVYLQMNSLKPEDTAVYFCAAQGYGWWYDYWGQGSQVTVSS” it was “low polyreactivity”; in that of “QVQLVESGGGLVQAGGSLRLSCAASGRTFLPNPMGWYRPAPGKERELVAVITSVGSTNYADSVKGRCTISRDNAKNTVYLQMNSLKPEDTAVYFCAALKPRTRRAGFNYWGQGTQVTVSS”, “low polyreactivity”.
Turning to “QVQLEESGGGLVQAGGSLRLSCAASGSTFAVYAMGWYRQAPGKERELVAAINRSGDSTYYADSVKGRFTISRDNAKNTVYLQMNSLKPEDTAVYYCAAYQRVRSGVDMYSWGQGTQVTVSS”, the “polyreactivity (PSR sort gate)” value is on record as “high polyreactivity”.
Next, “QVQLVESGGGLVQAGGSLRLSCAASGSTFWPYAMGWYRQAPVKERELVADISRRCGSTYYADSVKGRFTISRDNAKNTVYLQMNSLKPEDTAVYYCAKYPSAYVDSDVTYDMAYWGQGTQVTVSS”: “low polyreactivity”.
Next, “QVQLVESGGGLAQAGGSLRLTCAASGNTFPLYPMGWYRQAPGKERELFAAISQRGGSTYYSDSVKGRFTISRDYAKNTVYLQMNSLKPEDTAFYYCAATWADEYQYRRYYYWGQGTQVTVSS”: “high polyreactivity”; “QVQLVESGGGLVQAGGSLRLSCAASGSILESIVMGWYRQAPGKERELVASISSSGDSSYADSVKGRFTISRDNAKNTVYLQMNSLKPEDTAVYYCAADRWYWTYALYYWGQGTQVTVSS”: “low polyreactivity”.
In the case of “QVQLVESGGGLVQAGGSLSLRCASSGSTFAYYAMGWYRQAPGKERELVAGNNWTGGSTYYADSVKGRFTISRDNAKNTVYLQMNSLKPEDTAVYYCAVTYPYGYEYDHWGQGTQVTVSS” it was “low polyreactivity”; in that of “QVQLVESGGGLVQAGGSLRLSCAASGSIFAYYAMGWYRQAPGKERELVAAISWSGGRTYYADSVKGRFTISRDNAKNTVYLEMNSLIPEDTAVYYCTAYFYSFYYPFPYESWGQGTQVTVSS”, “low polyreactivity”; in that of “QVQLVESGGGLVQAGGSLRLSCAASGFIFTLYAMGWYRQAPGKERELVADISFNSGNTYYADSVKGRFTISRDNAKNTVYLQMNSLIPEDTAVYYCAVDLYFVGDVYEGYLGGDYLGQGTQVTVSS”, “low polyreactivity”.
Take “QVQLVESGGGLVQAVGSLRLSCAASGSTLSFNAMGWYRQAPGKERELVAGITYSGGSTYYADSVKGRFTISRDNAKNTVYLQMNSLKPEDTAVYYCNKASGVYYGHLDYWGQGTQVTVSS”: the “polyreactivity (PSR sort gate)” value is “low polyreactivity”.
Next, “QVQLVESGRGLVQAGGSLRLSCAASGSILSINGMGWYRQAPGKERELVATIDGSDGSTFYADSVKGRFTISRDNAKNSVYLQMNSQKPEDTAVYYCAAENFWQTKEYDYWGQGTQVTVRS”: “low polyreactivity”; “QDQLVESVGGLVQAGGSHRLSCAASGFTLKAYVMGWYRQAPGKERELVAAIRITGGRTYYADSVKGRFTISRDNAKNTVYLQMNSLKPQDTAVYYCNAVKGEPDDYVPFELDYWGQGTQVTVSS”: “high polyreactivity”.
